Key:
[1] = target: His-tagged linear tetra-ubiquitin chains (TR-FRET with SHARPIN NZF) (UniProt P0CG48); experiment: TR-FRET assay; conditions: DMSO; mixed and incubated for 1 h; parent: 100; read off a plot; scale: relative fluorescence intensity
[2] = target: Sm-di-ubiquitin (GA mutant) (UniProt P0CG48); experiment: NanoBiT assay in HEK293T cells; conditions: 1 h, transient transfection, cultured 24 h, read off a plot, scale: relative luminescent intensity

Row | percent of parent [1] | percent of parent ([2]; DMSO, parent: 100) | response ([2]; FSL0717 10 μM, parent: est. 60) | response ([2]; FSL0720 10 μM, parent: est. 50) | Substance
1 | 38 |  |  |  | GST-tagged SHARPIN NZF T351A; F352A
2 |  | 52 | 37 | 43 | Lg-HOIL-1L NZF WT (from UniProt Q9WUB0) TR-AA
